From patent publication US20170128524A1 (published 2017)

Biological target: T1, Syntaxin 1a (mouse, UniProt O35526 1-288)
T1 construct: also called STX1a; STX 1a
Assay: Co-IP with anti-STX1a antibody from mouse cortical synaptosomes, Western blot

T1 sequence (O35526 whole entry): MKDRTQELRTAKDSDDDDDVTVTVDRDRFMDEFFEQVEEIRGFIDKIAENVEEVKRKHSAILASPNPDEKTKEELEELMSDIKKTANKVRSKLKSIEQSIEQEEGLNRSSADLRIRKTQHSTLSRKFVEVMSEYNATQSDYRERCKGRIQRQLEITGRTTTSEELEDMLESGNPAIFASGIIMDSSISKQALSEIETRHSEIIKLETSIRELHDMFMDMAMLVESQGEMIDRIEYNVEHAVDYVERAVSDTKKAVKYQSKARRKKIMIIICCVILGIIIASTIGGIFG

- binding result: no binding
B1: c-Jun N-terminal Kinase isoform 1 (JNK1) (enzyme, mouse, UniProt Q91Y86 1-384, looked up)
chain: MSRSKRDNNFYSVEIGDSTFTVLKRYQNLKPIGSGAQGIVCAAYDAILERNVAIKKLSRPFQNQTHAKRAYRELVLMKCVNHKNIIGLLNVFTPQKSLEEFQDVYIVMELMDANLCQVIQMELDHERMSYLLYQMLCGIKHLHSAGIIHRDLKPSNIVVKSDCTLKILDFGLARTAGTSFMMTPYVVTRYYRAPEVILGMGYKENVDLWSVGCIMGEMVCHKILFPGRDYIDQWNKVIEQLGTPCPEFMKKLQPTVRTYVENRPKYAGYSFEKLFPDVLFPADSEHNKLKASQARDLLSKMLVIDASKRISVDEALQHPYINVWYDPSEAEAPPPKIPDKQLDEREHTIEEWKELIYKEVMDLEERTKNGVIRGQPSPLAQVQQ
notes: Lower 46 kDa band of the JNK signal in the non-immunoprecipitated control; also called lower band, 46 kDa
